Measurements from paper PMC11282289, “Serial X-ray liquidography: multi-dimensional assay framework for exploring biomolecular structural dynamics with microgram quantities” (Nature Communications, 2024).

Biological target: the molecule itself
Experiment: static small angle X-ray scattering (SAXS); conventional static SAXS, flow cell, no laser (ground state); difference scattering between wild type and monomeric mutant; 25 mM Tris pH 7.5, 100 mM NaCl, 2 mM DTT

B1: Arabidopsis thaliana UV-B resistance 8 (AtUVR8), wild type, residues 12-381 (domain or fragment, UniProt Q9FN03 12-381, looked up)
chain: APPRKVLIISAGASHSVALLSGDIVCSWGRGEDGQLGHGDAEDRPSPTQLSALDGHQIVSVTCGADHTVAYSQSGMEVYSWGWGDFGRLGHGNSSDLFTPLPIKALHGIRIKQIACGDSHCLAVTMEGEVQSWGRNQNGQLGLGDTEDSLVPQKIQAFEGIRIKMVAAGAEHTAAVTEDGDLYGWGWGRYGNLGLGDRTDRLVPERVTSTGGEKMSMVACGWRHTISVSYSGALYTYGWSKYGQLGHGDLEDHLIPHKLEALSNSFISQISGGWRHTMALTSDGKLYGWGWNKFGQVGVGNNLDQCSPVQVRFPDDQKVVQVSCGWRHTLAVTERNNVFAWGRGTNGQLGIGESVDRNFPKIIEALSVDG
notes: UV-B resistance 8 (UVR8), Arabidopsis thaliana, residues 12-381; Homodimer in the dark (ground) state; also called 2M-T-AtUVR8-His; source: E. coli BL21(DE3) GOLD, purified (IMAC, TEV cleavage, Q-Sepharose, MBPTrap flow-through); not shown: MBP-His-tag, N-terminal, cleaved
  binding result: binds
